# According to the DeepSol protein solubility set:
# Assay: soluble on expression in E. coli; label from the status in PepcDB or PDB records
row,Sequence,soluble on expression in E. coli
1,MSLNKELIQHAAYAAIERILNEYFREENLYQVPPQNHQWSIQLSELETLTGEFRYWSAMGHHMYHPEVWLIDGKSKKITTYKEAIARILQHMAQSADNQTAVQQHMAQIMSDIDNSIHRTARYLQSNTIDYVEDRYIVSEQSLYLGHPFHPTPKSASGFSEADLEKYAPECHTSFQLHYLAVHQDVLLTRYVEGKEDQVEKVLYQLADIDISEIPKDFILLPTHPYQINVLRQHPQYMQYSEQGLIKDLGVSGDSVYPTSSVRTVFSKALNIYLKLPIHVKITNFIRTNDLEQIERTIDAAQVIASVKDEVETPHFKLMFEEGYRALLPNPLGQTVEPEMDLLTNSAMIVREGIPNYHADKDIHVLASLFETMPDSPMSKLSQVIEQSGLAPEAWLECYLNRTLLPILKLFSNTGISLEAHVQNTLIELKDGIPDVCFVRDLEGICLSRTIATEKQLVPNVVAASSPVVYAHDEAWHRLKYYVVVNHLGHLVSTIGKATRNEVVLWQLVAHRLMTWKKEYANNAVFVDCVEDLYQTPTIAAKANLMSKLNDCGANPIYTHIPNPICHNKEVSYCESEGHHHHHH,soluble
2,MSLNKYLEQLVLLSKIDQEIDSYEPKIDSINKTLKDAELKIEKINADLEKIDEEIKDIENQKIQNNAHISEFSAKIKDLSKKSGVVKTEKEANALKIEEDIAKEQLDAANDEIVRLDKILENKETYKKELEEEKIKQEQNINEIRVSIKSEMEVLEKDRMSVYDKKTKLVSEMNQKVLSFYEKIRKWAKNTAVVPVKKQACYGCFMKIYDKTYLSVVKGEEIVTCPHCGRILYKEQEEQNEGHHHHHH,soluble
3,MSLNLDFELNLTQQQKLVMTQQMQMSIKLLQMSNMELNEYIRSEIEENPLLDGKEVIKNDEYQSEMSKVDYKEFIKYLDFDNYTHENYSYRSEEEEVSPFNFIGSKKSFTEYLLDQLREISIDSETRHICEYIIENLDRDGYLRDSLEDIGMAVHKELKSVQNALNVVQSLEPIGVGARNLAECLKLQIYVRNVNDTKLIEIIDKHLGNIAENKYGVIAKELNITPKEAQEYGDYIKKLEPKPSRGFFTGDEVKYVVPDAFIRKIDDDFYVIMNDSSIPKLSINNTYKNILNTENDKKDVDYVKEKLNSAMFLLKSIEQRKTTLYEVLNEILRYQKAYFVGKTNYLRPMTLKDISEKLGMHESTISRAIREKYVYIDTKGLVKIRDMFTTGIASAYSVSEDKKDMSTQKIKNEIRDLIEKENKKSPLSDQKLSEILKEKGMNISRRTVAKYREEIGIKSSAKRKRYEGHHHHHH,soluble
4,MSLNLTFKKKSFFFKLSSKVDNSNTTYNYKSGWIIKLKNIEKGVGFGEVNPLRKHDLDACQIQLNQIPKYVNSKNISELIKNFHPCIQSAINSALAEIERKINFQENYYFNEIDQTAILLDPHNALKELIILKGNKLLNKKSLTIKWKVGIQDNFSEEKTLIEILNHLKSNIKLRIDANGSWERETANRWVDILKDIENIDWLEQPLSKDDIEGLKELNKKMPIALDESLLKYPYLINEWDGWQIRRPSQERNPMQLLKELKDKKGFRSLSTSFETGIGRRWLFHLSSLQLLGLTPKVPGLALKKNPNSFLFQNDAQKIWDQLEGHHHHHH,not soluble
5,MSLNLTVSDVVELMGDAVVQTGEASLQTQPVEWVSVIETPVENFVRENELVLTTGIGCGEDEERFLQFVHDIAASNAAALAIAMGRFVKHIPDRVLHYASTHGLILLEIPWELRFADLIQSVLLQMEQRKQKEIEQAESLRKQLLEMEGHHHHHH,soluble
6,MSLNPLSRNVIPIEIHRIVAVGDVHGDAERFRQILEMSGVISLRSNSSKQVVWKPRWGTKEGNFFREYGTRLRTTLIQTGDLIDRGEEDLEVLEMAVSLFNEVRTNYTDDKVVLLMGNHELLNLQGHFHYVHSKSMGGFLTRALRKRAFELDGTFGGFILENFTVAYAVADTLFVHAGIDEHVVSDGIERLNREAKQAIRTKNFGHILLGSTGPLWSRKMFLDASNGRCADTKKALASLGVKRVVVGHTPQRSGRVETFCGGSVIAIDVGMSRWMYGNIAALEITVTSYSSGDGEGHHHHHH,soluble
7,MSLNRFTKTSQGRSWNTGNGSPDAICFAVDKPGIVVVGFAVYGGGGIHEYELEVLVDDSEHAGDSTHSHRWTSLELVKGTYTTDDSPSDIAEIRLDKVVPLKENVKYAVRLRNYGSRTANGDGGMTTVQCPDGVTFTFSTCSLSSNGTNQTRGQIPQILYYRSEFDGDLQSQLLSKANEEDKNCSRALSVVSTVVRAAKDLLHRALAVDADEGHHHHHH,not soluble
8,MSLNSAMDKILVVNEGGELLRFKAMQQDLLYESLLKNHCYHTAYYLNSFDRLSLQENRARALFLVNKPDANTIFAKYQADRGYGDALELGVVYRTEFEKMLSVSVSGEEYHVTFSSVLSIINGNDVRKIRILSEGTVIRTTPRFPENTSGFFFRTYNQQYEMEGHHHHHH,soluble
9,MSLNSQGYAVVDFETTGLSPAKGDRAIEIGLVHVAPDGTLEDEHETLIHVDRSVGASWVHHITARELLHAPDFEGIAHELRDLLAGRVFVAHNVSFDSRFLLAEYSRMGASIPVDQSTMLCTMKLSRSLIGRGKLADCCEYFGIANEDAHSALSDAHATAILLGRLLEADPKWPGFQRRLDAAGAAAEQWPTFATLPKKEWLPRGTHLAEGHHHHHH,soluble
10,MSLNSTFSIVDLETTAPFKEGGHIIQIGISFVKNWKIINNFQTMVNPGVKIPEQIVDLTGIKNEDVENAPYFEDLARMIHDQLSGTVFVAHNVRYDFPYLNGEFARIKMRRLRLEYVDTVQLAQIVFPTMNSYKLDELVSKLGINLPRHHRADQDASATAQLFLKIHEHLQEFPQNTLNNLINHSKSLLGNTETIFQLSKGKRTFPGDRYGPFDIARLKKIDKGQLIKWIEAKKQSSLSKPLPATVLRPRQESFANILQSKITGKNNKIFSVFSRPRFGKTNAYLDLAVKIAAKGYKILIIEENYLRRRSTFQKSQSLFPENKDLFQIPITRKDFVSLDKLADAFLTEDNPSRQLAKLRVISWLLKSRTGNLNEFVNGFPEPLFNFFSDQDSPNKFDYFERSISSYTFPSIAITDLDSFLRTKNEFSREYNLFIFDVDKGVSNLIDMLPFFSKKIILFTQAQSYIKNWYSIRDFSDMNSVILSLGSELKEGHHHHHH,not soluble
11,MSLNSYVLGFKEIDKTKISMVGGKGANLGELSRVAGILIPEGFCVTTEAYKKIIEKSKEFNELLDELSCLRLEDGEKVYEVSKKIRMVIERISIPKDIVEEIDVYLTRLGEKDAYAVRSSATAEDLPTASFAGQQDTYLNIIGKKSILEHISKCWASLFTDRAVIYRLQNGFDHRKVYISVVIQKMIFPKAAGILFTADPVNSNRKVLSIDASFGLGEALVSGLVNADMYKVLSGKITDKKVSKKKLAIYASKDGGTKAQELEIEKQNKQVLTEEQILQLEHIGRSIEEHFSFPQDIEWCLNQDTFYILQSRPITTLYPIPKANDEENHVYISVGHQQMMTDPLKPLGMSLYELTSFGNRFKAGGRLFFDVTQMLASKDSRKMLLNNMEQHDPLMKDALVTIIERDFIKALPSDNGNQSKSNKGVSAGESENQIENNPTIVSDLINKNQASIEELKENIKTKSGLELIDFIRTDVEELKKILSDPQSSAVFMTAINASHWINEKMRDWLGEKNAADILSQSVPNNITSKMGLELLEIADVIRPYPEIIDYLQHVKDDNFLEEIVKFNGGHEVKNAILSYLSKYGMRCSGEIDITRTRLSEKPITLVPMILNNIKNFETGAANIKFQQGKQKALEKEQELLERLKQLPDGEQKAKETKRMIKLIRNFIGYREYPKYGMVNRYFIYKQALMKEAEKLANIGAIHEKEDIYYLTFEELREVIRTKKVDYSIINKRKNEHKLYEKLIPPRVITSDGEIVEGEYKRENVPEGAIIGLSVSSGVIEGRARVILNMEDANLEAGDILVTSFTDPSWTPLFVSIKGLVTEVGGLMTHGAVIAREYGLPAVIGVENATKLIKDGQQIRVNGTEGYVEILEGHHHHHH,soluble
12,MSLNTIIQKAKETHELSRDEIIALLKDDSINEELFKAADEVRKKYLGDEVHLRGLIEFTNICKRNCMYCGLRRDNKNLNRYRLSHEEIIDFAKKAVGYGYKTLVLQGGEDDYYTVERLVPIVKDLKALGVALTLSIGERPFEEYEALKKAGADRFLLRIETTDRELYEELDPGMSHENRIQCLKNLRKLGYEVGSGCLVGLPGQKIESLADDILFFKELDVDMNGIGPFIPNEDTPLKDAEGGQFELALKVMAIVRLLLPDINIPATTAMETLNKQGRVIALQCGANVVMPNVTEGEYRKLYALYPGKICTGDTPAHCRGCISGKIRGIGRIVSDGPGFRANGFKPKTEGHHHHHH,soluble
13,MSLNTLKEVNKIIQYLNNIHNEPIGNQARVLCGKDAAKHLFLVASGADSLSIGEYEILSQIRSTIDMFKKLGFSGKYLQIFFERAIKVGRKVREETSISKGKVGIYSLAIDEAKKRFNDFYDRRILVIGAGEMAQKITSMLHNEGAKDVTIMNRTIEKAKQLALKFGYNYEKLDLDKLGNFDVAFISIYHENLRLENKWNTLIVDITVPPLFTGNNVITLEELERISNLNFKAREEELAKINKLVEDGINELLYDYKKEIYTEFMSKIMKRIETIRENEILRAYKELEKEGHHHHHH,not soluble
14,MSLNTVVTALPYFQERAERVASAINAEFIHYHSGLFSELYRTTQRIVAIMAIGIVIRNIAPLIHDKWTDPAVVVISPDMQYAIPVLGGHHGANDLVYLLQERCGLTPVITTATEATGREAVEVLANREHLRIVNTRSTRQANASVLTGSAKVYRLPGPGMVIAGSGVSFLVADGPYSVGIGCRLGTSADEIVHAIHSACETAGISQEDIAIYATGGIKTHESGLLDAVRTLGRNIIFLNHSDLSEVAPPSQSAASRFGLPGVAEPAALAVSVHHHLILEKQIYGNVTIAIAEEGHHHHHH,not soluble
15,MSLPDATVVKAFLLDLQHRICAGLEQLDGQASFAADSWTRAEGGGGTSRVLTQGAVFEQAGVNFSHVTGAAMPASATAHRPELAGRSFEAMGVSLVIHPKNPYIPTTHANVRFFIAHKDGAEPVWWFGGGFDLTPYYPFEEDVREWHQSAKNLCQPFGDDVYPKYKKWCDEYFFLPHRNETRGVGGLFFDDLNQAGFDKSFDFMQAVGNGFLTAYAPIVERRKDTDYGERERDFQLYRRGRYVEFNLVYDRGTLFGLQTGGRTESILMSMPPLVRWQYAYTPAAGSPEADLYDNYLKPRDWVLEHHHHHH,not soluble
16,MSLPREKVVRVWDEREVVYSPKRWRILWEKREKALKIMELLKDFDPHVYGSVARGDVRRDSDIDIVIPYRVPSYLIELALGDLIQRRRIVMATPWHLIKGHIEIDEETTVTFFLVDPTDRELEFYKWGGMLDLWGVKTKQRVPGVNKKLILIIPTDKGHIEREVVGREAEVAKILGVSVDIVEERVKVLTRRDRIGRTGIYLDEEVPDWKSFEEFLKELADRDPNIRRRVRESLEGHHHHHH,not soluble
17,MSLQAKIKNKRVLVKFSGEALAGDNQFGIDIHVLDHIAKEIKSLVENDIEVGIVIGGGNIIRGVSAAQGGIIRRTSGDYMGMLATVINAVAMQEALEHIGLDTRVQSAIEIKEICESYIYRKAIRHLEKGRVVIFGAGTGNPFFTTDTAATLRAIEIGSDLIIKATKVDGIYDKDPNKFKDAKKLDTLSYNDALIGDIEVMDDTAISLAKDNKLPIVVCNMFKKGNLLQVIKHQQGVFSMVKEGHHHHHH,soluble
18,MSLQDDIKEKKKLVVAVSPDYAPFEFKALVNGKDTVVGADIDLAKAIAKELGVKLELSSMSFDNVLSSLKTGKADIAISGLSYTKERAQAYDFSEAYYKTENAILIKKSDLNKYTMISSFNNKTKVAVQKGTIEEGLAKNQLKQSNITSLTSMGEAVNELKSGQVDAIDLEKPVAEGYVSQNSDLVLAKVALKTGEGDAKAVALPKDSGQLVKTVNKVIKKLKKEDKYKQFISDAVKLTGQQVDEGHHHHHH,soluble
19,MSLQEKNFSEEEIDDALSRCQAKNWQSDRRFSENYLNSRVQKGYGVGRIRQELRQLKGVSSDIIDEVLMESEIDWYEMAENLLRKKFPNYNEQQTPKMKQKIWQYMLSHGFRSDEFADLIGQNQSEWDEGHHHHHH,soluble
